Test system: MS2 coat protein
Test: apparent KD of MS2 coat protein; designed switch direction (-1 OFF switch, 1 ON switch): 1; higher = weaker reporter binding
Procedure, shortened: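 Designed RNA switches were transcribed on Illumina chips by stalled E. coli RNA polymerase and titrated with SNAP-549-labelled MS2 coat protein from 0.7 or 1.5 nM, doubling to 3 µM. Step length ran from 0.8–1.5 h at the lowest concentration to 10–20 min at the highest. The apparent KD is the median over clusters for each design, from curve-fitted normalised cluster fluorescence.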

[1] = Eterna round: R95, input ligand: FMN 200 uM
[2] = Eterna round: R95, input ligand: microRNA oligo, concentration not stated
[3] = Eterna round: R95, input ligand: none
[4] = input ligand: microRNA oligo, concentration not stated

| Sequence | apparent KD of MS2 coat protein [1] | apparent KD of MS2 coat protein [2] | apparent KD of MS2 coat protein [3] | apparent KD of MS2 coat protein (input ligand: FMN 200 uM) | apparent KD of MS2 coat protein [4] | apparent KD of MS2 coat protein (input ligand: none) |
| --- | --- | --- | --- | --- | --- | --- |
| CGUCCGGCCUGUGCUGGCCGGCGGCUUGUACAUGAGGAUCACCCAUGUUCUUGUGCUGGCUUUUUGCUCGUCUUGUG [salish99_mir208a_022] (puzzle: Sensor for hsa-mir-208a) | 32.2 nM | 16.3 nM | 39.5 nM |  |  |  |
| AGUCCAGCCUGAGCUGGACAAAAGCAUGUACAUGAGGAUCACCCAUGUUCGUGUACAAGCUUUUUGCUCGUCUUAAA [Zipper 52 - 5] (puzzle: Sensor for hsa-mir-208a) | 518 nM | 13.5 nM | 725 nM |  |  |  |
| AGAUCAUGACGAGGAUAUGCCACAUGAGGAUCACCCAUGUAUGUGGUAGGACGGAAACGUCCAAAGCAGAAGGCGUCGUGGUCA [Mat - Same State NG 2 - JL mod - D35] (Eterna round: R96, puzzle: Same State NG 2) |  |  |  | 23.1 nM | 44.8 nM | 41.7 nM |
| AUCAAAACAAGUUGCAGUGUUCGUCUUUCACAUGAGGAUCACCCAUGUAAUAGCCCAGUGGAAGCGCUCAGGCCACC [Usbi] (puzzle: Sensor for hsa-mir-208a) | 225 nM | 57.7 nM | 210 nM |  |  |  |
| GGAGCCAAGGCAGGAUAUUCAUAUUAAAUAACAUGAGGAUCACCCAUGUUGGCCAGAAGGCCAUGGGAGAAGGGCCAUGGCUCG [Xeonanis - 13 mod22] (Eterna round: R96, puzzle: Same State NG 2) |  |  |  | 18.8 nM | 53.1 nM | 87.2 nM |
| GUACAGAUCAGAGGAUAUCACGUCGAAUAGACGUGAGAAGGCUGAUCACACAUGAAUAUUAGUACAUGAGGAUCACCCAUGUAC [SSNG1/15-A1] (Eterna round: R96, puzzle: Same State NG 1) |  |  |  | 14.5 nM | 12.8 nM | 18 nM |
| UGGAUCUAGGCUUGCCUGGGUCCAUGCUGACAUGAGGAUCACCCAUGUGCAUCCUACAAGCUUUUUGCUUGUCGGCU (puzzle: Sensor for hsa-mir-208a) | 178 nM | 194 nM | 221 nM |  |  |  |
| UUGUAUCGAAAAGGAUAUCAUGGGCAACGGUACUGAGAAGGUUUCGAGCUCGAACGAGCAACAUGAGGAUCACCCAUGUCCGAG [Eternabot solution 50] (Eterna round: R96, puzzle: Same State NG 1) |  |  |  | 337 nM | 280 nM | 212 nM |
| UCUUGGUUUUUGCUCGUUUUUUGUGUUGAACAUGAGGAUCACCCAUGUAUUGUACGAUCCGGUUUAGUGAUGGUCCG [JMF 63] (puzzle: Sensor for hsa-mir-208a) | 40.8 nM | 27.7 nM | 42.1 nM |  |  |  |
| CCGCUCCGUGGAGGAUAUGGGCCUGCCCGGGAUAACGGGCCUAACACAUGAGGAUCACCCAUGUCCCAGAAGGCCGCUGGAGCC [Atxerexebe] (Eterna round: R96, puzzle: Same State NG 2) |  |  |  | 24.8 nM | 40 nM | 113 nM |
| GGUAUUAACACAGGAUAUGCUUACGAAACGUAAGCAGAAGGGUGAACAUGAGGAUCACCCAUGUAUGUACCAGGGCGUGAGCCC [JL SSNG1 1.73] (Eterna round: R96, puzzle: Same State NG 1) |  |  |  | 137 nM | 510 nM | 1040 nM |
| AGUCCAGCCUGAGCUGGACAAAAGCAUGUACAUGAGGAUCACCCAUGUCAUGUACAAGCUUUUUGCUCGUUUUAAUA [Zipper 49 - 14] (puzzle: Sensor for hsa-mir-208a) | 509 nM | 14 nM | 679 nM |  |  |  |
| GAGUGGAGGUAAGGAUAUACAAUGAUAAUCACAGUAGAAGGUACUAACAUGAGGAUCACCCAUGUAGGACUAUACCAGAGAGGG [Parity 39 - Jieux - Same State NG 1] (Eterna round: R96, puzzle: Same State NG 1) |  |  |  |  | 13 nM |  |
| GAGGGCGAAAGCAACAUGAGGAUCACCCAUGUCCUCGGAGGGCAGGAUAUCCGGCGGUAGCCGAAGGAGAAGGGUCGAAAAGAA [AK SSNG3-V2-34] (Eterna round: R96, puzzle: Same State NG 3) |  |  |  | 34.8 nM | 292 nM | 61.1 nM |
| GACUGCGUUAUGAAGGAUAUCCGCGUCUGGACAUGAGGAUCACCCAUGUAUACUUGGAUCGUGCAGGAGAAGGUCAAGGGUGAUU [JR_SS002_Sub1210] (Eterna round: R96, puzzle: Same State 2) |  |  |  | 507 nM | 163 nM | 243 nM |
| AGUCCACCCUGAGGUGGACAAAAGCAUGUACAUGAGGAUCACCCAUGUCAUGUACAAGCUUUUUGCUCGUCUUAAUA [Mat - hsa-mir-208a - Mod of JL - D42] (puzzle: Sensor for hsa-mir-208a) | 589 nM | 17.9 nM | 734 nM |  |  |  |

| Sequence | apparent KD of MS2 coat protein [1] | apparent KD of MS2 coat protein [2] | apparent KD of MS2 coat protein [3] | apparent KD of MS2 coat protein (input ligand: FMN 200 uM) | apparent KD of MS2 coat protein [4] | apparent KD of MS2 coat protein (input ligand: none) |
| --- | --- | --- | --- | --- | --- | --- |
| UUCUCACAUGAGGAUCACCCAUGUGAGCCUCUGUGAGGAUAUCCGACAUAAUUAAGUGAAGGAGAAGGUACACGAG [Malean] (puzzle: Same State 1) | 24.8 nM | 30.2 nM | 19.5 nM |  |  |  |
| UGGCUCAGACGAGGAUAUACGUGGUCACAUGAGGAUCACCCAUGUCUCGAGCUUCGGCUCGAGGCGUAGAAGGUGUCUGAGCCU [SSNG2/6-C3] (Eterna round: R96, puzzle: Same State NG 2) |  |  |  | 237 nM | 363 nM | 662 nM |
| CUUUUUCCUUUUACAUGAGGAUCACCCAUGUUUUCAUAUUGAGAGGAUAUCGUAUUUGGAAUUUUCGAGAAGGCUCAUUUGUAU [JR_SSNG3_Sub075] (Eterna round: R96, puzzle: Same State NG 3) |  |  |  | 39.4 nM | 25.5 nM | 28.9 nM |
| AACAUGAGGAUCACCCAUGUCAGGUCGCCAACCUACAUGAGGAAGGAUAUAGCCUCGAAUAUUGGCUAGAAGGUCCUCAUGAAU [Tieson] (Eterna round: R96, puzzle: Same State NG 3) |  |  |  | 320 nM | 16.4 nM | 39.9 nM |
| AGAUCAUGACGAGGAUAUGCCACAUGAGGAUCACCCAUGUAUGUGGUAGGACGCGUACGUCCAAAGCAGAAGGCGUCGUGAUCA [Mat - Same State NG 2 - JL mod - D36] (Eterna round: R96, puzzle: Same State NG 2) |  |  |  | 21.5 nM | 37.6 nM | 47.9 nM |
| AUAGUUUCCGAAGGAUAUGAUGAGGAUCACCCAUCAGAAGGUUGGCUAUUGGGCGGACAUGAGGAUCACCCAUGUCUUUCGGUU (Eterna round: R96, puzzle: Same State NG 1) |  |  |  | 84.7 nM | 76.8 nM | 101 nM |
| UGUUGUAUUACAGGAUAUCUAUUAUUUUUUUUUAGAGAAGGGUAUUCACAUGAGGAUCACCCAUGUAUAUACGAGGAAGUUGUG [JMF's solution 23] (Eterna round: R96, puzzle: Same State NG 1) |  |  |  |  | 45.5 nM |  |
| GAAAAGCAGAGAGGAUAUGUCACUCAUGCCGUGACACAUGAGGAUCACCCAUGUUCAAUCCGGCCGCAGAAGGCUCCGCGAAAA [Eternabot solution 25] (Eterna round: R96, puzzle: Same State NG 2) |  |  |  | 8.9 nM | 9.13 nM | 10.8 nM |
| UAGUGUUUGCGAGGAUAUCGUUUGUUGAAGUUACGAGAAGGCGCUCUAAUUACAUGAGGAUCACCCAUGUCUGUGAUGCAUGAU [JR_SSNG1_Sub070] (Eterna round: R96, puzzle: Same State NG 1) |  |  |  | 65.2 nM | 56.3 nM | 70 nM |
| UGUUGUAUUACAGGAUAUCUAGUAUUUUUGUUUAGAGAAGGGUAUUCACAUGAGGAUCACCCAUGUAUAUACGAGGAAGUUGUG [JMF's solution 47] (Eterna round: R96, puzzle: Same State NG 1) |  |  |  |  | 42.3 nM |  |
| UGUUAACAUGAGGAUCACCCAUGUCAAAUGAAUCGAGGAUAUGGGAAGGAAGAAGAGAAACUAGAAGGCGAAGUUG [Altered State 1-4 - Jieux - Same State 1] (puzzle: Same State 1) | 835 nM | 56.8 nM | 216 nM |  |  |  |
| GGAGCCAAGGCAGGAUAUUCAUACUAAUAACAUGAGGAUCACCCAUGUAAGGCCAGAAGGCCUUGGGAGAAGGGCCAUGGCUCG [Xeonanis - 13 mod3] (Eterna round: R96, puzzle: Same State NG 2) |  |  |  | 22 nM | 57.1 nM | 86.7 nM |
| ACAAGCUUUUCUGCAUUGAAAGGUGGGAUACAUGAGGAUCACCCAUGUUUUUAUGAAAAUAAUGCUCCUCGUCUUAU [JR_SHM208A_Sub092] (puzzle: Sensor for hsa-mir-208a) | 214 nM | 50.3 nM | 243 nM |  |  |  |
| UCUUGGUUUUUGCUCGUUUUUUGUGUUGAACAUGAGGAUCACCCAUGUAUUGUACGGUCCGGUUUGAUGAUGGUCCA [JMF 46] (puzzle: Sensor for hsa-mir-208a) | 35.6 nM | 23.9 nM | 38.3 nM |  |  |  |
| CUCAAACAUGAGGAUCACCCAUGUGUUGUCAUGGGAGGAUAUCUAAGUUCGUUGUAGUCGGGAGAAGGCCUAUGUC [× ×•×ª×• ×ž×“×™× ×” × ×—×ª-11] (puzzle: Same State 1) |  | 182 nM |  |  |  |  |

From the supplement of paper PMC9170038
